Patent US20190153113A1, “CD39 VASCULAR ISOFORM TARGETING AGENTS” (INNATE PHARMA, priority 2015, published 2019)

T1: CD39-L3 (Homo sapiens, UniProt O75355)
T1 sequence (O75355 1-529): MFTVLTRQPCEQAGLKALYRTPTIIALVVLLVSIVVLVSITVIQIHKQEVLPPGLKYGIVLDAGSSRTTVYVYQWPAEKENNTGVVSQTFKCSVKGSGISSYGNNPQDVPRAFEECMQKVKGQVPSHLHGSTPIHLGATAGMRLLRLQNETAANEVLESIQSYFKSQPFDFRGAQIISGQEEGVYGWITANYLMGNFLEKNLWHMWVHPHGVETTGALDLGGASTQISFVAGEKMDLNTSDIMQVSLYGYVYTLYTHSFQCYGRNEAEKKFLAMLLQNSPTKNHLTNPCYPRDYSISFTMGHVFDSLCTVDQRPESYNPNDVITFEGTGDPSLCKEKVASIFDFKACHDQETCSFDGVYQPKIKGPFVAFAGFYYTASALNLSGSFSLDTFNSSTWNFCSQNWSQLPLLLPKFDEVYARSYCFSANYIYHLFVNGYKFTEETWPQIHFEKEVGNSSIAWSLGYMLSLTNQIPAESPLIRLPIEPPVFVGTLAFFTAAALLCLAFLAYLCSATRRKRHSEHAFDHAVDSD

T2: CD39-L4 (Homo sapiens, UniProt O75356)
T2 sequence (O75356 25-428): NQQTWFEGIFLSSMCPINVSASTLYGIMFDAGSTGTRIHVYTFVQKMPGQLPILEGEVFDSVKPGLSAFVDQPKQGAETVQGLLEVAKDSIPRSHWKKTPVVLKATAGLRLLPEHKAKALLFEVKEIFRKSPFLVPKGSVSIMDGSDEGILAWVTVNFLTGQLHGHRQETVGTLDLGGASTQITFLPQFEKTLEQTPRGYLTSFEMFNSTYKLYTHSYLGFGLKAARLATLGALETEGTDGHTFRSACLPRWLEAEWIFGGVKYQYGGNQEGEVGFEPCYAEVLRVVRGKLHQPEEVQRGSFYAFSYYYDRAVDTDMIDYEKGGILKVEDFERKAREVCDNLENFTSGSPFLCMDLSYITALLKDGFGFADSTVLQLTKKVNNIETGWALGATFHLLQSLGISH

T3: CD39-L2 (Homo sapiens, UniProt O75354, K202E)
T3 sequence (O75354 1-484 K202E): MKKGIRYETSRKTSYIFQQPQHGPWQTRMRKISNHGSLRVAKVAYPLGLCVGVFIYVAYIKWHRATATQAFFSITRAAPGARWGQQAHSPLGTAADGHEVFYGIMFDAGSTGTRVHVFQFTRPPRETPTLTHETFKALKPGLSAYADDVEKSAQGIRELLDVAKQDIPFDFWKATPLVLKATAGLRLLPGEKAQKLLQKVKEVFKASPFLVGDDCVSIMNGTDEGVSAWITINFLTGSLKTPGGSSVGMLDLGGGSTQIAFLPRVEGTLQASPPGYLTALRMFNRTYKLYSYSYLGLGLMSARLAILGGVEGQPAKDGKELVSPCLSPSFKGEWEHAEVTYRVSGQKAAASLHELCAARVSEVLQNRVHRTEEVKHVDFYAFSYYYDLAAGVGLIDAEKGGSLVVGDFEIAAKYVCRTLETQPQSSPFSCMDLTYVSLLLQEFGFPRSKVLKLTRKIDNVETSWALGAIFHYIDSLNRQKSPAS

T4: human CD39 at cell surface (Homo sapiens, UniProt P49961)
T4 construct: cells that endogenously express CD39 at their surface, e.g. regulatory T (TReg) cells, B cells, cancer cells, lymphoma cells (e.g. Ramos cells); endogenous in cells; host or cells: Ramos human lymphoma cells
T4 sequence (P49961 1-510): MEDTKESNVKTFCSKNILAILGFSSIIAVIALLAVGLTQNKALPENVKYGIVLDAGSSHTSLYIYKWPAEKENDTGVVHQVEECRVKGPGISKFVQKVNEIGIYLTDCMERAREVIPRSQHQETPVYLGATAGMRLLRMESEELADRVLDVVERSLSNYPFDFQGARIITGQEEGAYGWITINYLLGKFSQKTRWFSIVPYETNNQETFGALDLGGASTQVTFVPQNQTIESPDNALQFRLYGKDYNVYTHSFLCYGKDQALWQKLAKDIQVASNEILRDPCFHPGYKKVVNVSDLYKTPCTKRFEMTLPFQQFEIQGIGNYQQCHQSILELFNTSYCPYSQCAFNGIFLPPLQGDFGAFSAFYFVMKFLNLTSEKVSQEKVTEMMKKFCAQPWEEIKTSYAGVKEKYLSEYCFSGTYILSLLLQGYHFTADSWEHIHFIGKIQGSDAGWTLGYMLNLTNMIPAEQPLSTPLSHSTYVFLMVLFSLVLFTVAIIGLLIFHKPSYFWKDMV

T5: CD39 mutant 4 (D150A, E153S, R154A, S157K, N158A, L278F) (human, UniProt P49961 1-510)
T5 construct: Transfected in HEK293T cells
T5 chain: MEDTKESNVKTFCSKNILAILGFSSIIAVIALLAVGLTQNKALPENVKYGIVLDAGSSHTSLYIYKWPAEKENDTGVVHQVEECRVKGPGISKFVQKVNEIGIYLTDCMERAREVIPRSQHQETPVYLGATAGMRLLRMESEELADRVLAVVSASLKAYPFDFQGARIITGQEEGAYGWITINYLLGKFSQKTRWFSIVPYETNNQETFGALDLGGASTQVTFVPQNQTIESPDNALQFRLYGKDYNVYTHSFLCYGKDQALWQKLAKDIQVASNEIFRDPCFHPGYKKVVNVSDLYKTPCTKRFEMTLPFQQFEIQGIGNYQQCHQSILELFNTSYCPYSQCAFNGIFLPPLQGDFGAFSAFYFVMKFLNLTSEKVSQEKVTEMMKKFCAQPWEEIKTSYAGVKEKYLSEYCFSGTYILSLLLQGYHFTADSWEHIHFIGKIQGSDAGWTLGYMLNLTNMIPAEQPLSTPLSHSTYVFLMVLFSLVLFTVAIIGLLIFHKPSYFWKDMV


Columns and labels:
[1] = molecular target: T1, CD39-L3; test: ELISA titration on recombinant human CD39 isoforms; assay type: binding; settings: recombinant protein coated
Protocol: (§1) Wells were washed in TBS Tween 20, and further saturated 2H at RT in TBS Blocking buffer. Dose range concentration of primary antibody was incubated in TBS blocking buffer for 2h at RT. Wells were washed in TBS Tween 20. […] Optical density was measured on Enspire at OD=450.

[2] = molecular target: T2, CD39-L4; test: ELISA titration on recombinant human CD39 isoforms; assay type: binding; settings: recombinant protein coated
Protocol: as §1

[3] = molecular target: T3, CD39-L2; test: ELISA titration on recombinant human CD39 isoforms; assay type: binding; settings: recombinant protein coated
Protocol: as §1

[4] = molecular target: T4, human CD39 at cell surface; test: CD39 down-modulation / internalization on Ramos cells; assay type: cell-based; settings: Ramos human lymphoma cells, 10 μg/ml, 4° C. or 37° C.
[5] = molecular target: T5, CD39 mutant 4 (D150A, E153S, R154A, …); test: flow cytometry, HEK293T cells transfected with mutant 4

binding to CD39-L3 [1]	binding to CD39-L4 [2]	binding to CD39-L2 [3]	binding result [5]	Molecule	CD39 down modulation / internalization [4]
not to any of the CD39 isoforms	not to any of the CD39 isoforms	not to any of the CD39 isoforms	–	I-392: anti-CD39 antibody, VH SEQ ID NO: 8 and VL SEQ ID NO: 9, chimeric human IgG1 with N297Q mutation (antibody, V domains shown) VH: QIQLVQSGPEVKKPRETVKISCKASGYTFTHYGMNWVKQAPGKGLKWMGWINTYTGEPTYADDFKGRFAFSLEASASTAYLQINNLKNEDTATYFCARRRYEGNYVFYYFDYWGQGTTLTVSS VL: DIQMTQSPASLSASVGETVTITCRASENIYSYFSWYQQKQGKSPQLLVYTAKTLAEGVPSRFSGSGSGTQFSLKINSLQPEDFGSYYCQHHYVTPYTFGGGTKLEIK	do not induce CD39 down modulation nor CD39 internalization
–	–	–	binds	Antibody I-391, Fc silent recombinant chimeric human IgG1 with heavy chain N297Q mutation (antibody, V domains shown) VH: QIQLVQSGPELKKPGETVKISCKASGYTFRNYGMNWVKQAPGKGLKWMGWINTYTGEPTYADDFKGRFAFSLATSASTAYLQISNLKNEDTATYFCARKAYYGSNYYFDYWGQGTTLTVSS VL: DIVMTQSHKFMSTSVGDRVSITCKASQDVSTAVAWYQQKPGQSPKLLIYSASYRYTGVPDRFTGSGSGTDFTFTISTVQAEDLAVYYCQQHYTTPPYTFGGGTKLEIKR	–
